This series is described as follows: label from the status in PepcDB records.
For the sequence “MRGADGRVTDADYRELRGATETPREAVVVGLAGEVGLTSAEIPRVRPCDVAPHDHDGVTHYFLAVPGADGGSDRDAYLPPAVERDIRRRADAAGLADDDPLVDVSARRVQTLVNAVAGRTDTAGLDGVAAQDLRSFFARRLLTGAGVDPRVVAAVGGWSRLASLDQYAAVDAVDRDAIARAFDGTTRAPTDRSEQRAHDRVDEAHSAVLAAGDALSDASTRGAVETAVCEALAASDAYEMAWLARPTTRDDVTVAATAGGDRAIRDDASAAPGATLVQAALDDGTGLFTPAASAAPAVAALREHAAAAGVQAMGVVPVAGPEAAHGVLAVGASTARFSQRERTLITDLGRRVGRAVALAEQRHRLLTDTVLEVAFEVRAGSVFARAAVEQGCDLSLEGVVPGDRQTLVFFVRVAGAPADGVRDWLHDHDGVVSVRVVRDQGGEAVLAVGVAPGADLAMAVVSHGGTIRDLSAGPGGERVVAGVAPETDVRALLDALATAFPGVSLAAKRERARGDETGQRDGASLHDALTDKQAAVLRAAFHAGYFEWPRESTAEDLAADMGVTAPTLHNHLRRAQQKLLATVIDSDGGCDPDTPWPDTRQ”, the protein production entry is given as “failed”.
Take “MRGDDMHIYELVSRDRTHPVRIYLLHSEYWTEDEFYNLLLEAFQRSSASDWHLQILEVSKYLVTAHGFVEAGGLQEIGFPGELSKTEVRRRINAFLGKDRSD”: the protein production result is “not failed”.
Consider “MRGNDETVLAQALDWLRQGRRVALLTVLGTYGASPRPPGALAAIRDDGVICGSVSGGCVEDDLRREIAEGGVFGAAPSARVRSFGVSVEERQRYRLPCGNSLRVAVETMPDPAQLEALLAAVRQRRCLWRRVDYRDGAAHLLESGPPAAFAEDEAGFSALHGPLWRLLIIGGAELGRYLAQIALTLDYAVTVCEPREEYAAGWEPDGVALSAQMPDDLVLAFGCDERTAVVAVTHDPKLDDLALMEALRLPCHYVGALGSATTTMKRKARLAEHFGLTPAQLDRLHGPVGLPIGSRTPAEIAVSIAADLIASRSACHREGVHGEEGSCRA”, for which the protein production entry was “failed”.
As for “MRHDIRAPETFRRYCLPSRPRGCPLKTYVIGDVHGRADLLKALPSHIEENDPNGCGYRVIFLGDIIDRGPDSMKAMEMVVRELNQNPESRLILGNHEEFMLLFLDRPDKREIVFDHWMRNGGLAAAASYGLNVGGRYGRIEEAHESLLELLHRRQNHIDAMRRAASLINDGANVFVHAGLRPGVPFEQQTTKDLRTIRSGFLDNDFDFGAMVVHGHTVTSSGLPEIRRSRIALDTGAGAGGCLSMMMVDDDGARTFFQSGSAREVVKVELSQRPDEP”, the protein production result was “failed”.
For “MRHLPYPLLGLFLALSSTGAALAGEQYYPLDKGSAPYAVAPSAQGAVWYGADGGHSLGRLDPTSGESVQVPLGEGARPRAIVSDESGNAWVLDSGLNAILRIGGERLGSERFPLPAKAAPAGLESAVFDDDGRLWFTGSRGFHGRLDPARRLVEVWPSPQGKAANGICVTPDGEVWYAQDDALVHVDPLDGSAERLPAPEGTKALRGIGADSIGRLWASDSGGARLYRYDPSDASWQSWPLPDSQARPDSLRVDAMDRVWLHDAASGALLRFDSEQATFRVLPSDRPAPGNALLGGRPGETWSAEPAADRLRVVRD”, the protein production result is listed as “failed”.
As for “MRHYETMFILKPTLVEEEIKSKIEFYKEVITKHHGVIETSLDMGMRNLAYEIKKHKRGYYYVAYFKAEPSMIVELERLYRINEDVLRFIVIKYESKKEVEAWHALVDRANKKPSHAKEKHEKTEHTHSHHTEEAESVGSHSE”, the entry is “failed”; as for “MRIAALFTCIIGVFMLATSVQAAQPADITRLSNGLTVLVLKDDRFPLASLRLYVHAGSAFETPEEAGISHLLEHMVFKGTVKRPKGQVARDVESVGGYLNAATSFDYTVYLTDMPSTQWKLGMDVLRDMAFEPALDPAELESEKDVVIAELQRGEDSPDSRIFQSLQAGTLKGTTYERPIIGYRETIRATTADTMRAYIRKHYQPQSMLLTVVGNVDPAEVRAEAERLFGGLTNDQNITPPAAIDARAFAHGPVVNVEHGPWKKVYLGVALPVPGLKALQAAQLDMLSQLLGGDPTALLYRTFKYEKQLVDDISVANYSFERVGMLYITAELDADKVETFWKELTTMLAGLKADAFTEQEFERARLNIEDGLYRSKETVAGLASKEGYFQFFSDGPQGEANYLQAVRDVERPQLEALIRDWLRPERLTVSVLLPEGTKAPALAATLKSTWPSKGKAAEEGNAAAVGKTETVDLGGGRKVVLIPDTTLPYTALDMVFSGGNALLDQNRQGLAALTASVLTKGTLKHDAPTLEAFQSDRAASLGASAGRRTFTLSLREPSRFDGDMFGLLHEVLTTPALAPDEVAREKRNQVASIRAREDQPLGLAFRHLTPFLFPGHSYGFYHLGQPETVEGFTRDDVKAFWARQAAQPWVMSVAGSFDREAVLRFAKSLPAPSGKPVSLDAPAWTPEKALDLRLPERNQAHLLLVFPTVGLAHKDTPALELLQSVLAGQSGLLFRDMRDKQGLGYTVTAMNWQSDLAGFMVLYIGTEPGKLEQAEAGFRKVIDQLHATALPDEELRRGKNQMRGDYYREHQRLGSRSSEAAMLTSQGYPLLFNREVIDKAEKLAPSDLERVARTYLDMNKVRVVKVLP”, “failed”.
Consider “MRIASLVPSITELLFDLGLADQLVARTGFCIHPEPAVRAVAKVGGTKDVKLDRLRALAPTHVVVNIDENRRETVDEIRTFVPHVIVTHPCAPEDNLALYRLLGGIFGRLEHHHHHH”, for which the protein production entry is “failed”.
For the sequence “MRIAVVGATGRIGSKLTRTLLGAGHQVKALSRGGAALEALVEAGAEPFLGSFDTGAGALDTFFQDVEAAFLMVKTDWNNIEGHYPAVAQRFVDALRGSPVKLAVSLSAMGSDVDGKTGHFELFHHLDQRLNELNDIDMVHLRAAWFMENTLAWTASVAKYGRLAWFYEPDLKMPWVATDDIAGLAAKELTNPTGDHRVIRETGSEDLTMNELAAMIGREIGKPVEYRFIDRGRKEIENEYLARFGTPEHWLDDSRSADALNHGVVRFQGGDDVRPVLPTTMEAFLKTIWTPRYLEALASEGKPETFEMWCAR”, the protein production entry is given as “failed”.
As to “MRICLFLCLCLCMASPALAQVAVFPALSGKTDAQTLVVYSSLDEPLATPMIEGFQKANPDIAVHYEDMLTGEIYDRIVKETDAGKKTADFAFSSAMDLQVKLSNDGYAQRSDLAMSARWPAWANWRNTAYALTFEPAVFVYHKPSFTTEKPPATRAEFVDYLERHAKEVHGRIATYDIERSGVGFLFMSRDQEQFGDIWSVIKAMGAAGVKVYSTSSAILERVSDGRFVLGYNILGSYAADWASRHPDVGIVLPKDYTVVMSRIGLVPEAAANPELGRRYLEFFMSKEGQTIMARQLQIPAVSPEVAGENTANTMQAIHGAQLRPVPVSPGLMVYLDQVKRSR”, the protein production result is reported as “not failed”.
Regarding “MRIDKFLQSVGLVKRRVLATDMCNVGAVWLNGSCAKASKEVKAGDTISLHYLKGIEEYTILQIPALKNVPRKDTHLYIAPKTKE”, the protein production entry was “failed”.
As for “MRIFGKARHRPSASWRQATDRAFTLIGDGRYEDAGALLTRAADLEPWLSESWFNLALLHKFRHDWEQARAAGLRAVALLDRDIGAPDWWNVGIAATALQDWPLARRAWQAYGLRTPGGATDAGEPLGMDLGSAAVRLSPEGEAEVVWGRRLDPARVEVLSIPLPSSGRRWGEVVLHDGVPHGERTTSAGHSYPVFDEIELWAPSPVPTWVVLLEAATESDRDALEQLAADAGFAAEDWSSSVRLLCRMCSESRMPSDEGDGEHLDPHDHSEPGHPGPLGHRTDGQLWVPERECGVAAPAGLVKGLLDGWVADSPDSRDWRDLEEVC”, the entry is “failed”; as for “MRIFIIKSSTAHTAFDYSIKDIPGTSGRLDLICRSLNAAFQLSHSFRKNVRVYTVLYGPPDPPKTIRFEGAKIKPKTLNPDEVSTAKLIGKILNAGKDIKEPTKEREVLPGIYISRMTFEDVVRKNIKYNLYLLEENGVDIEKVKFPQDNVGFILGDQNGFTEEELNFLEGLVPKITIGPKPYLTSHVIAFVNIYLDRIGIP”, “failed”; as for “MRIHSIILLLFLLVISPVAGSISITDSTASKFDRYFYEGVRQREQENYAAAFDIFRYCHRLNPNDAALLSELGKLYIAIGRQEEGTRYLEQAYRLYPDNKNYGNILGAVYERQGRADDAVRLYEEMSEQFPSEDELRFKLANMYVQAGEIDKAIYIYNRMEAQNAVNAADASNYAEIRARLYLMTGQTNKALNELRRLCNRFPEVNEFRLKYAGTLLDSEKYDEAYEQLQLIARTDSTSGLYHFAMASYYLGTNEKEAAINEMIKVAADKDVAPEQKLPIILRFIGTDTDEEDAPKKEYNILLEKILASHPTEVDARLFYAELLEMQGDSIHAMEVCRPITEFAPKEERAWKFMLGRAVTGQNHTEVHRISEQARQYLPGVPLFYLYDAISYYIEKKGSEAKHILQEALEHIDAEKDPNGLSDIYSQLGDLAYEENKPEEAFANYEKALELNPRNVGVLNNYAYFLAKEGGDLAKAERMAAQCVKLLPDNAVSLDTYGWVFFLRENYTLAKLYIEKALGLAADNPDADVVEHHGDVLYMLGEKEKAMLEWKRAKEIGGGGSPMLDKKIEQGKYIPEKKK”, “failed”.
In the case of “MRILADTNVIIDALTSREPWNKSAEEIFLMAANHTIEMYITASSATDIYYLIRKHLHNTETAKMIMGKLYSLTGILEVTADDCMDALASAISDYEDAVVEKVASRKDMDYIVTRNIKDYQAGGTKIILPDDFVKLVEEELEHHHHHH” it was “failed”; in that of “MRINLQSLGCRLNEAELESWAREFQAAGHRLVSETGDADLIVLNSCAVTAEAVRKSRQMIRRTQRLSPRARLVLSGCYATLHGDEAAALGVDLVVSNADKSRLVEIAARELALEAMPEFSTEPGEAALFALGRQRAFVKVQDGCRYRCTFCIVTVARGEERSRLPAEVIREIRRLQAEGVQEVVLTGVHLGGYGSDLGLPLDALIRSILQETEIPRLRLGSLEPWDLPPGFFDLFENPRFMPHLHLPLQSGSDTVLKRMARRCKSEEFARLADHARRQVPDINITTDIIVGFPGETEREWEESLQFIETIGFGDIHVFTYSVREGTKAAAMGGHVPAEIKKERSRVLHELALGQKRALLGRFVGREMPVLWENRRDGADRGYTPNYLRVAIQTPETGLTNRITPVRLVKVDASGEFLWCGPVTLPPAAPADTRWRR”, “failed”.
For the sequence “MRINTRRKKWAAVAVVTLVSVIASVIVTVIVVGTLDPQSLRPAIIVPLLVAPLATHWGAERLLEIDKLNQQLAHLNRIDQMTQLYNRACLLEKLEQEPEEAGMILIADIDHFKQINDTYGHDVGDLVIIEVARVLQRSSLPEGIAARFGGEEFVIYVPRLDLEAAEFRAEAIRQAVEAQSVMIDGRKLSCTISIGIEIRQMQENVGDVLKRADEALYRAKAQGRNQVVAARRLARAGKSRETAQARRAP”, the protein production result is reported as “failed”.
As to “MRIPYIDCGMNSLFFITLLGSFFTVAQANSSSDLLELPATNSALAIKSVLMAMTPNNDAILVVGERGHIINWQNDDNWQQLQSPVSVAITDVTILSDGSKVAVGHDGVILKVDSNSTTWRKVFTGKEITQFQIAQLKQQYQSLEQVILQTQDEDELEELTYQLDDLTFAIEDNQLELKSGPNKPLLSVTSTSNDTLFASGAYGILLSSKDKGETWQLVSNHLDNPDRFHLNTVIATADDQLYIVGENGMGFHSTDVGQTWSVMTLPYSGSLFGILANTVKTHTISTDDINSTKNKTQLVAFGLQGNIMVSLDGGGNWQHIKLPRSTSLLGGNFSKQGKVYLVGHGGVIVSFYPENLSTLTIKKHPSGAALSSVLVKDNSLILAGQFGISQWPIEAEE”, the protein production entry is “failed”.
As for “MRIQIQKLSYRDIDSFIELLDVFEEVFEMKNFEMPSVEHLEELLGKDDFFVFVARSEGTIVGGLTAYSLTQYFSKSPLLYIYDVAVMKRHQRKGIGKKLIMGIKDYCKDSDIGEIIVQADEADEHAIEFYQSTGAKAAKVVQFYYALNG”, the protein production entry is reported as “failed”.

The values are drawn from a protein production outcome set (Wang et al. 2014).
